Results: patent US20240059799A1 (Pfizer, published 2024)

T1: recombinant human TL1A (human, UniProt O95150 71-251)
T1 chain: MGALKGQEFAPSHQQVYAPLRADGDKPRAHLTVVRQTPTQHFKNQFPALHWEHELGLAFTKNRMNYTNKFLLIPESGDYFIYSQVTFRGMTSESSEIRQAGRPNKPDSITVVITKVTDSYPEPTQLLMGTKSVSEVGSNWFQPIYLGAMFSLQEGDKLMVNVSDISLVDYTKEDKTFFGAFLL

T2: recombinant human TL1A (human, UniProt O95150 71-251)
T2 construct: homotrimer; biotinylated for SPR capture; the ELISA paragraphs say only 'recombinant TL1A'; also called TNFSF15
T2 chain: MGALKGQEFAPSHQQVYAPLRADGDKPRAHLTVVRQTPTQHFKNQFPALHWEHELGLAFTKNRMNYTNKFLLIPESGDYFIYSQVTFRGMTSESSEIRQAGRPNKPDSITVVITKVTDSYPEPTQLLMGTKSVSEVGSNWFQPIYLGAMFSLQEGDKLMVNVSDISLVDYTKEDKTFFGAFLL


What was measured:
recombinant human TL1A [1] = biological target: T1, recombinant human TL1A; assay: cell-based or functional assay
recombinant human TL1A [2] = biological target: T1, recombinant human TL1A; assay: competition ELISA, coated TL1A, competitor bio-TL1A-0002
Description: (§1) For this competition ELISA assay procedure, 96-well high binding plates (Corning, product number 3590) were coated with 1 μg/mL recombinant TL1A in 100 μL/well in Phospate Buffered Saline (PBS) overnight at 4° C. Plates were then blocked in PBS+0.02% casein solution and washed with PBS+0.05% Tween-20 following standard ELISA protocol. […] Plates were washed with PBS+0.05% Tween-20 following standard ELISA protocol, and Streptavidin-HRP (Southern Biotech, product number 7100-05) diluted to 1:10,000 in assay buffer was added to plates and incubated for 25-30 minutes at room temperature. Next, the plates were washed with PBS+0.05% Tween-20 following standard ELISA protocol, and then TMB substrate (BioFX Laboratories, catalog number TMBW-0100-01) was added to plates. Reactions were stopped after approximately 5 minutes by adding 0.18 M ortho-phosphoric acid to each well and absorbance was read at 450 nm.

recombinant human TL1A [3] = biological target: T2, recombinant human TL1A; assay: competition ELISA vs bio-TL1A-0002
Description: as §1

| TF-1 NF-κB reporter cell bioassay IC50 (recombinant human TL1A [1]) | TF-1 NF-κB reporter cell bioassay, Bioactivity relative to TL1A-0002 (recombinant human TL1A [1]) | Whole blood IFNγ assay IC50 (recombinant human TL1A [1]) | Whole blood IFNγ assay, Bioactivity relative to TL1A-0002 (recombinant human TL1A [1]) | Bioactivity relative to TL1A-0002 (recombinant human TL1A [2]) | IC50 (recombinant human TL1A [2]) | Bioactivity relative to TL1A-0002 (recombinant human TL1A [3]) | IC50 (recombinant human TL1A [3]) | fold reduction of TL1A binding properties compared to TL1A-0002 (recombinant human TL1A [3]) | Binder |
| --- | --- | --- | --- | --- | --- | --- | --- | --- | --- |
| 25.9 nM | 0.7 fold | 0.748 nM | 0.9 fold | 0.8 fold | 4.2 nM |  |  |  | TL1A-0042 (antibody, human IgG1, kappa, V domains shown, parental heavy chain with IGKV1-39*01 light chain; human IgG1 effector-function-minimized/kappa) VH: QVQLVQSGAEVKKPGASVKVSCKASGYDFTYYGISWVRQAPGQGLEWMGWISTYNGNTHYARMLQGRVTMTTDTSTRTAYMELRSLRSDDTAVYYCARENYYGSGAYRGGMDVWGQGTTVTVSS VL: DIQMTQSPSSLSASVGDRVTITCRASQSVSSYLAWYQQKPGKAPKLLIYDASNRATGVPSRFSGSGSGTDFTLTISSLQPEDFATYYCQQRSNWPWTFGQGTKVEIKR |
| 37 nM | 1.1 fold | 0.745 nM | 0.9 fold | 1.3 fold | 6.6 nM |  |  |  | TL1A-0266 (antibody, human IgG1, kappa, V domains shown, human IgG1 effector-function-minimized/kappa) VH: QVQLVQSGAEVKKPGASVKVSCKASGYDYTYYGISWVRQAPGQGLEWMGWISTYNTNTHYAPSLQGRVTMTTDTSTSTAYMELRSLRSDDTAVYYCARESYYGSGAFRGGMDVWGQGTTVTVSS VL: DIQMTQSPSSLSASVGDRVTITCRASQSVSSYLAWYQQKPGKAPKLLIYDASNRATGVPSRFSGSGSGTDFTLTISSLQPEDFATYYCQQRSNWPWTFGQGTKVEIKR |
|  |  |  |  |  |  | 1.6 fold | 7.2 nM |  | TL1A-0025 (antibody, V domains shown) VH: QVQLVQSGAEVKKPGASVKVSCKASGYDFTYYGISWVRQAPGQGLEWMGWISTYNGNDHYADSLQGRVTMTTDTSTRTAYMELRSLRSDDTAVYYCARENYYGSGAYRGGMDVWGQGTTVTVSS VL: EIVLTQSPATLSLSPGERATLSCRASQSVSSYLAWYQQKPGQAPRLLIYDASNRATGIPARFSGSGSGTDFTLTISSLEPEDFAVYYCQQRSNWPWTFGQGTKVEIKR |
|  |  |  |  |  |  | 1.8 fold | 8.2 nM |  | TL1A-0195 (antibody, IgG1, V domains shown, IgG1/kappa variant of TL1A-0002) VH: QVQLVQSGAEVKKPGASVKVSCKASGYDFTYYGISWVRQAPGQGLEWMGWISTYNGNTHYARMLQGRVTMTTDTSTRTAYMELRSLRSDDTAVYYCAREQYYGSGAHRGGMDVWGQGTTVTVSS VL: EIVLTQSPATLSLSPGERATLSCRASQSVSSYLAWYQQKPGQAPRLLIYDASNRATGIPARFSGSGSGTDFTLTISSLEPEDFAVYYCQQRSNWPWTFGQGTKVEIKR |
| 42.2 nM | 1.2 fold | 0.94 nM | 1.1 fold | 1.3 fold | 6.8 nM |  |  |  | TL1A-0267 (antibody, human IgG1, kappa, V domains shown, human IgG1 effector-function-minimized/kappa) VH: QVQLVQSGAEVKKPGASVKVSCKASGYDYTYYGISWVRQAPGQGLEWMGWISTYNTNTHYAPSLQGRVTMTTDTSTSTAYMELRSLRSDDTAVYYCARESYYGSGAHRGGMDVWGQGTTVTVSS VL: DIQMTQSPSSLSASVGDRVTITCRASQSVSSYLAWYQQKPGKAPKLLIYDASNRATGVPSRFSGSGSGTDFTLTISSLQPEDFATYYCQQRSNWPWTFGQGTKVEIKR |
| 29.5 nM | 0.8 fold | 0.923 nM | 1.1 fold | 1.1 fold | 5.6 nM |  |  |  | TL1A-0261 (antibody, human IgG1, kappa, V domains shown, human IgG1 effector-function-minimized/kappa) VH: QVQLVQSGAEVKKPGASVKVSCKASGYDYTYYGISWVRQAPGQGLEWMGWISTYNTGTHYAPSLQGRVTMTTDTSTSTAYMELRSLRSDDTAVYYCARESYYGSGAHRGGMDVWGQGTTVTVSS VL: DIQMTQSPSSLSASVGDRVTITCRASQSVSSYLAWYQQKPGKAPKLLIYDASNRATGVPSRFSGSGSGTDFTLTISSLQPEDFATYYCQQRSNWPWTFGQGTKVEIKR |
|  |  |  |  |  |  | 2.7 fold | 11.9 nM |  | TL1A-0196 (antibody, IgG1, V domains shown, IgG1/kappa variant of TL1A-0002) VH: QVQLVQSGAEVKKPGASVKVSCKASGYDFTYYGISWVRQAPGQGLEWMGWISTYNGNTHYARMLQGRVTMTTDTSTRTAYMELRSLRSDDTAVYYCARESYYGSGEYRGGMDVWGQGTTVTVSS VL: EIVLTQSPATLSLSPGERATLSCRASQSVSSYLAWYQQKPGQAPRLLIYDASNRATGIPARFSGSGSGTDFTLTISSLEPEDFAVYYCQQRSNWPWTFGQGTKVEIKR |
| 43.9 nM | 1.3 fold | 1.03 nM | 1.2 fold | 1.4 fold | 7.3 nM |  |  |  | TL1A-0262 (antibody, human IgG1, kappa, V domains shown, human IgG1 effector-function-minimized/kappa) VH: QVQLVQSGAEVKKPGASVKVSCKASGYDYTYYGISWVRQAPGQGLEWMGWISTYNTGTHYAQKLQGRVTMTTDTSTSTAYMELRSLRSDDTAVYYCARESYYGSGAFRGGMDVWGQGTTVTVSS VL: DIQMTQSPSSLSASVGDRVTITCRASQSVSSYLAWYQQKPGKAPKLLIYDASNRATGVPSRFSGSGSGTDFTLTISSLQPEDFATYYCQQRSNWPWTFGQGTKVEIKR |
| 45.1 nM | 1.3 fold | 1.01 nM | 1.2 fold | 1.7 fold | 8.7 nM |  |  |  | TL1A-0265 (antibody, human IgG1, kappa, V domains shown, human IgG1 effector-function-minimized/kappa) VH: QVQLVQSGAEVKKPGASVKVSCKASGYDYTYYGISWVRQAPGQGLEWMGWISTYNTVTHYAPSLQGRVTMTTDTSTSTAYMELRSLRSDDTAVYYCARESYYGSGAHRGGMDVWGQGTTVTVSS VL: DIQMTQSPSSLSASVGDRVTITCRASQSVSSYLAWYQQKPGKAPKLLIYDASNRATGVPSRFSGSGSGTDFTLTISSLQPEDFATYYCQQRSNWPWTFGQGTKVEIKR |
|  |  |  |  |  |  | 1.8 fold | 8.3 nM |  | TL1A-0194 (antibody, IgG1, V domains shown, IgG1/kappa variant of TL1A-0002) VH: QVQLVQSGAEVKKPGASVKVSCKASGYDFTYYGISWVRQAPGQGLEWMGWISTYNGNTHYARMLQGRVTMTTDTSTRTAYMELRSLRSDDTAVYYCAREQYYGSGAFRGGMDVWGQGTTVTVSS VL: EIVLTQSPATLSLSPGERATLSCRASQSVSSYLAWYQQKPGQAPRLLIYDASNRATGIPARFSGSGSGTDFTLTISSLEPEDFAVYYCQQRSNWPWTFGQGTKVEIKR |
| 19.1 nM | 0.6 fold |  |  | 2 fold | 10.1 nM |  |  |  | TL1A-0274 (antibody, human IgG1, kappa, V domains shown, human IgG1 effector-function-minimized/kappa) VH: QVQLVQSGAEVKKPGASVKVSCKASGYDFSYYGISWVRQAPGQGLEWMGWISTYNTGTHYAPSLQGRVTMTTDTSTSTAYMELRSLRSDDTAVYYCARESYYGSGAFRGGMDVWGQGTTVTVSS VL: DIQMTQSPSSLSASVGDRVTITCRASQSVSSYLAWYQQKPGKAPKLLIYDASNRATGVPSRFSGSGSGTDFTLTISSLQPEDFATYYCQQRSNWPWTFGQGTKVEIKR |
| 30 nM | 0.9 fold | 1.06 nM | 1.3 fold | 3.1 fold | 15.8 nM |  |  |  | TL1A-0264 (antibody, human IgG1, kappa, V domains shown, human IgG1 effector-function-minimized/kappa) VH: QVQLVQSGAEVKKPGASVKVSCKASGYDYTYYGISWVRQAPGQGLEWMGWISTYNTVTHYAPSLQGRVTMTTDTSTSTAYMELRSLRSDDTAVYYCARESYYGSGAFRGGMDVWGQGTTVTVSS VL: DIQMTQSPSSLSASVGDRVTITCRASQSVSSYLAWYQQKPGKAPKLLIYDASNRATGVPSRFSGSGSGTDFTLTISSLQPEDFATYYCQQRSNWPWTFGQGTKVEIKR |
| 40.4 nM | 1.2 fold | 0.932 nM | 1.1 fold | 1.2 fold | 6.2 nM |  |  |  | TL1A-0263 (antibody, human IgG1, kappa, V domains shown, human IgG1 effector-function-minimized/kappa) VH: QVQLVQSGAEVKKPGASVKVSCKASGYDYTYYGISWVRQAPGQGLEWMGWISTYNTGTHYAQKLQGRVTMTTDTSTSTAYMELRSLRSDDTAVYYCARESYYGSGAHRGGMDVWGQGTTVTVSS VL: DIQMTQSPSSLSASVGDRVTITCRASQSVSSYLAWYQQKPGKAPKLLIYDASNRATGVPSRFSGSGSGTDFTLTISSLQPEDFATYYCQQRSNWPWTFGQGTKVEIKR |
|  |  |  |  |  |  |  |  | > 300 fold | TL1A-0250 (antibody, IgG1, V domains shown, IgG1/kappa) VH: QVQLVQSGAEVKKPGASVKVSCKASGYDFTYYGISWVRQAPGQGLEWMGWISTYNTVTHYAPSLQGRVTMTTDTSTSTAYMELRSLRSDDTAVYYCARESYYGSGAFRGGMDVWGQGTTVTVSS VL: DIQMTQSPSSLSASVGDRVTITCRASQSVSSYLAWYQQKPGKAPKLLIYDASNRATGVPSRFSGSGSGTDFTLTISSLQPEDFATYYCQQRSNWPWTFGQGTKVEIKR |
|  |  |  |  |  |  | 1.9 fold | 8.7 nM |  | TL1A-0197 (antibody, IgG1, V domains shown, IgG1/kappa variant of TL1A-0002) VH: QVQLVQSGAEVKKPGASVKVSCKASGYDFTYYGISWVRQAPGQGLEWMGWISTYNGNTHYARMLQGRVTMTTDTSTRTAYMELRSLRSDDTAVYYCARESYYGSGAFRGGMDVWGQGTTVTVSS VL: EIVLTQSPATLSLSPGERATLSCRASQSVSSYLAWYQQKPGQAPRLLIYDASNRATGIPARFSGSGSGTDFTLTISSLEPEDFAVYYCQQRSNWPWTFGQGTKVEIKR |
